One block for each substance: values may come before it.
What was measured:
Assay in all cases: FRET or BRET
[1] = target: YFP-preIQ3-IQD-PCRDC (not stated (human or rat cDNA cloned) | human)
[2] = target: YFP-preIQ3-IQD-PCRDS (not stated (human or rat cDNA cloned) | mouse)
[3] = target: YFP-preIQ3-IQD-PCRDD (not stated (human or rat cDNA cloned)) (UniProt Q01668)
Sequence of UniProt Q01668 (Q01668 whole entry): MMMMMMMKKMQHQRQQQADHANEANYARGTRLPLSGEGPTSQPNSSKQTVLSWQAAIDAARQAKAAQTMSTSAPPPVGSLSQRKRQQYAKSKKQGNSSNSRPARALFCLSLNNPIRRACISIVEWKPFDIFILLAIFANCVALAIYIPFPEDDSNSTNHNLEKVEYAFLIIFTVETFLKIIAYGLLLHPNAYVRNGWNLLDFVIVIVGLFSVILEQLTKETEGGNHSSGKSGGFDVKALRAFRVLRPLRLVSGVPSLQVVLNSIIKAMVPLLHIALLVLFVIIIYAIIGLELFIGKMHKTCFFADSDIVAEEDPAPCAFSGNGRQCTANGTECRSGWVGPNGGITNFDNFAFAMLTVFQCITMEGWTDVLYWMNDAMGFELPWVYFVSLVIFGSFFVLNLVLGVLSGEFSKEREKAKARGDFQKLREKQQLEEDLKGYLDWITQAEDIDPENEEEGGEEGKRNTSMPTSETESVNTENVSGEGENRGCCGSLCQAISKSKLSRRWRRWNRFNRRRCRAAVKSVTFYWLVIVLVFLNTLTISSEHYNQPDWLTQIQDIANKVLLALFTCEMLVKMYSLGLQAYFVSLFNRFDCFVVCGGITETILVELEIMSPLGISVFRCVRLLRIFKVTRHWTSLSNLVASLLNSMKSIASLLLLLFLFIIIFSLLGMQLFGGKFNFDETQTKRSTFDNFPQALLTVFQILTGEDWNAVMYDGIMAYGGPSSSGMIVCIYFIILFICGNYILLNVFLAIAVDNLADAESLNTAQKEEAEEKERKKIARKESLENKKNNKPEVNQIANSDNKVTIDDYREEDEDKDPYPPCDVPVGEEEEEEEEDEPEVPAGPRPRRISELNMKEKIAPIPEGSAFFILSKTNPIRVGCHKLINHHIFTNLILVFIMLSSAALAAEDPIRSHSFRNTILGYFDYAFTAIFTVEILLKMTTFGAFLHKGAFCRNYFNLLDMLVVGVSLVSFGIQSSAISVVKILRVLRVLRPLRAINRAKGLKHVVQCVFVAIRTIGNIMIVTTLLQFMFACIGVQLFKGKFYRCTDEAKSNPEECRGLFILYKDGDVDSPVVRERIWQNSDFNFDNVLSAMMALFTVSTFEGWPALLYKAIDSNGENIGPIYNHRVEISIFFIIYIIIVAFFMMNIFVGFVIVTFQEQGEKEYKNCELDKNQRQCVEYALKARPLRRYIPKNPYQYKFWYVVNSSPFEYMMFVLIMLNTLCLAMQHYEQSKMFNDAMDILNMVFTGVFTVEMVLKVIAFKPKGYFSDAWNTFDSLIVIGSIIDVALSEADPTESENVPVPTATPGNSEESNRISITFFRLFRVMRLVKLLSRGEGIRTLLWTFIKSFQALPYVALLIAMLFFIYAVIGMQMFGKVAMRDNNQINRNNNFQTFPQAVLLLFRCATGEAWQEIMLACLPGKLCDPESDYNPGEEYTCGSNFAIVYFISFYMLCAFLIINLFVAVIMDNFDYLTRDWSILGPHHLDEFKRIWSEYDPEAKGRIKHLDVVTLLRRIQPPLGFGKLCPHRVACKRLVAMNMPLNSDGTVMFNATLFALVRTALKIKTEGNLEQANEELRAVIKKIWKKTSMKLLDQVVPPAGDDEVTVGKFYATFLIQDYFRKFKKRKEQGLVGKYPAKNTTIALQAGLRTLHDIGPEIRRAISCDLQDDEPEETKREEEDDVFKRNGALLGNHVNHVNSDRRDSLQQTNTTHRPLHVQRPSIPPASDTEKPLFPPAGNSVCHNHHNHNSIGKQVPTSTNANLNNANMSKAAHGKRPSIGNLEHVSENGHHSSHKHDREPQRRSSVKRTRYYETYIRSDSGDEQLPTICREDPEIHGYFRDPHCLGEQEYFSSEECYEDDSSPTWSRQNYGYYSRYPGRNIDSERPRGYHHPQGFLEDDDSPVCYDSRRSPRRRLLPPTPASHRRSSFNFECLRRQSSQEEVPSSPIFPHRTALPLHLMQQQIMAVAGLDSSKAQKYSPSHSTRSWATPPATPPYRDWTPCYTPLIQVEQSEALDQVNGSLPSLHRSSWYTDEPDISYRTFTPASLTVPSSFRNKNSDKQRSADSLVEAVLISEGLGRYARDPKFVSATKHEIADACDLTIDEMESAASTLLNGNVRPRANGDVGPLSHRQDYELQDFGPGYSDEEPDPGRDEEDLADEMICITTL

relative Kd (normalised to Kd of PD/DF) [1]: 11.2
Substance: CFP-DCRDC (distal C-terminal regulatory domain of CaV1.2) (from UniProt Q13936 1-2221) (domain or fragment)

relative Kd (normalised to Kd of PD/DF) [2]: 18.7
Substance: CFP-DCRDS (distal C-terminal regulatory domain of CaV1.1) (from UniProt Q02789 1-1852) (domain or fragment)

relative Kd (normalised to Kd of PD/DF) [3]: 2.3
Substance: PCRDC-DCRDF peptide (PCRD of CaV1.2 joined to DCRD of CaV1.4)

Source: publication doi:10.1101/2020.01.26.920348
